Substitutions are numbered along the chain they refer to.
B1: 2x mTN8-19-7 peptibody (Fc fusion)
chain: GGGGGAQLADHGQCIRWPWMCPPEGWELEGSGSATGGSGSTASSGSGSATGLADHGQCIRWPWMCPPEGWELE
B2: 2x mTN8-19-21 peptibody (Fc fusion)
chain: GGGGGAQSEYQGLCTRWPWMCPPQGWKLEGSGSATGGSGSTASSGSGSATGSEYQGLCTRWPWMCPPQGWKLE
notes: Human Fc form
B3: 2x mTN8-19-33 peptibody (Fc fusion)
chain: B2 chain with S8P, Y10S, L13H, K27G, S52P, Y54S, L57H, K71G
B4: recombinant human activin receptor IIB/Fc chimera (R&D Systems) (Fc fusion, UniProt Q13705 19-134, looked up, not shown: a dimerising Fc or GST)
chain: SGRGEAETRECIYYNANWELERTNQSGLERCEGEQDKRLHCYASWRNSSGTIELVKKGCWLDDFNCYDRQECVATEENPQVYFCCCEGNFCNERFTHLPEAGGPEVTYEPPPTAPT

Experiments:
[1] = target: T1, recombinant mature myostatin (human, produced in E. coli) (human, UniProt O14793 267-375); assay: cell-based or functional assay
T1 sequence (looked up): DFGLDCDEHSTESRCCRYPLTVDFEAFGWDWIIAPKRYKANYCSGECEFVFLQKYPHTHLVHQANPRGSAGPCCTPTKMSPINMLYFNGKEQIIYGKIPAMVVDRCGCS

[2] = target: T1, recombinant mature myostatin (human, …); assay: KinExA solution based assay or BIAcore assay (not said which)
[3] = target: T1, recombinant mature myostatin (human, …); assay: cell-based or functional assay; remark: listed apart in the source

Row | Binder | Kd [2] [pM] | other results
1 | QGHCTRWPWMCPPY [TN8-19 peptide] |  | IC50 (read off the curve); luciferase activity, C2C12 pMARE-luc reporter cells, 4 nM myostatin [1]: ~20 µM
2 | B1 | 12 | 
3 | B2 | 6 | 
4 | B3 | 3 | 
5 | B4 |  | IC50 (nM), C2C12 pMARE-luc myostatin activity assay [3]: ~83 nM

Reference: patent US20140294866A1 (Amgen, published 2014)
